The record followed here is PMC7852545, “Cell fate determined by the activation balance between PKR and SPHK1” (Cell Death and Differentiation, 2020).

The target of experiment [1] is SPHK1 (sphingosine kinase 1) (UniProt Q9NYA1). The experiment can be described thus: Co-IP of Flag-PKR with endogenous SPHK1. Particulars: reference: wild-type PKR-Flag; sites T451.
The target is the same in experiment [2]. The experiment can be described thus: GST-SPHK1 pull-down of Flag-purified PKR. The conditions noted are these: reference: wild-type PKR-Flag; sites T451.
A further experiment addresses T1, GST-PKR (human, UniProt P19525 1-551).
T1 construct: double-stranded RNA-dependent protein kinase R (PKR), human, full-length cDNA; also called PKR (in vitro); source: prokaryotic expression (pGEX-4T1/pET28a vectors)
Description: pull-down; Flag-tagged SPHK1 (wild type, 225A, 225D) immunoprecipitated with anti-Flag from HEK293T lysates, purified and co-incubated with GST-PKR. Particulars: both partners purified.

The target in a further experiment is T2, PKR^451A-Flag (human, UniProt P19525 1-551, T451A).
T2 construct: double-stranded RNA-dependent protein kinase R (PKR), human, full-length cDNA, point mutant at Thr451; also called T451A; source: HEK293T, transfected, in lysate; also purified from the lysate for the GST pulldown; not shown: Flag, C-terminal, kept
T2 sequence (P19525 whole entry T451A): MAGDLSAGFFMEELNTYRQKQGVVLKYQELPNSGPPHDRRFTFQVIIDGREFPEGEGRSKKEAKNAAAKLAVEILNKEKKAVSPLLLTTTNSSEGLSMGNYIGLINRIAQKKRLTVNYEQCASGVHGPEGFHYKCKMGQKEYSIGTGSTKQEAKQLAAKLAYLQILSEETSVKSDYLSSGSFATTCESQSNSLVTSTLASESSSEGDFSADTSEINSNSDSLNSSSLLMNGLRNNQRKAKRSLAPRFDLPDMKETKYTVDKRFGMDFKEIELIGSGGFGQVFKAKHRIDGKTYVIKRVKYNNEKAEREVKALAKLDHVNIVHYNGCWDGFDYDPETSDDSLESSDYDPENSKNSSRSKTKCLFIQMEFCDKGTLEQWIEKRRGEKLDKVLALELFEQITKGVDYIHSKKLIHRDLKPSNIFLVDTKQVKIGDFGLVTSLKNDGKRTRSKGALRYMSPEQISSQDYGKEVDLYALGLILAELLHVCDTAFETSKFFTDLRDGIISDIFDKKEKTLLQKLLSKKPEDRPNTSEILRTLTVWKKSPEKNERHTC
Description: pull-down; Flag-tagged PKR (wild type, 451A, 451D) purified from HEK293T and co-incubated with GST-SPHK1. The conditions noted are these: both partners purified.

For the next experiment, the target named is T3, PKR^451D-Flag (human, UniProt P19525 1-551, T451D).
T3 construct: double-stranded RNA-dependent protein kinase R (PKR), human, full-length cDNA, point mutant at Thr451; also called T451D; source: HEK293T, transfected, in lysate; also purified from the lysate for the GST pulldown; not shown: Flag, C-terminal, kept
T3 sequence (P19525 whole entry T451D): as the sequence (P19525 whole entry T451A) above, with A451D counted along it
The experiment is described as above. Particulars: both partners purified.

Another experiment concerns the target T4, PKR-Flag (wild type) (human, UniProt P19525 1-551).
T4 construct: double-stranded RNA-dependent protein kinase R (PKR), human, full-length cDNA; also called wild-type PKR; Flag-PKR; source: HEK293T, transfected, in lysate; also purified from the lysate for the GST pulldown; not shown: Flag, C-terminal, kept
The description is as above. The conditions noted are these: both partners purified.

T1 sequence (P19525 whole entry): as the sequence (P19525 whole entry T451A) above, with A451T counted along it
T4 sequence (P19525 whole entry): as the sequence (P19525 whole entry T451A) above, with A451T counted along it

For the molecule “PKR (dsRNA-dependent protein kinase R) (from UniProt P19525) T451A”, the “binding against the reference” value in experiment [1] and in experiment [2] was “stronger” in each case.

B1: SPHK1^225D-Flag (phosphomimetic mutant of SPHK1) (enzyme, human, UniProt Q9NYA1 1-384, looked up)
chain: MDPAGGPRGVLPRPCRVLVLLNPRGGKGKALQLFRSHVQPLLAEAEISFTLMLTERRNHARELVRSEELGRWDALVVMSGDGLMHEVVNGLMERPDWETAIQKPLCSLPAGSGNALAASLNHYAGYEQVTNEDLLTNCTLLLCRRLLSPMNLLSLHTASGLRLFSVLSLAWGFIADVDLESEKYRRLGEMRFTLGTFLRLAALRTYRGRLAYLPVGRVGSKTPADPVVVQQGPVDAHLVPLEEPVPSHWTVVPDEDFVLVLALLHSHLGSEMFAAPMGRCAAGVMHLFYVRAGVSRAMLLRLFLAMEKGRHMEYECPYLVYVPVVAFRLEPKDGKGVFAVDGELMVSEAVQGQVHPNYFWMVSGCVEPPPSWKPQQMPPPEEPL
notes: sphingosine kinase 1 (SPHK1), human, full-length cDNA, point mutant at Ser225; source: HEK293T, transfected, in lysate; also purified from the lysate with anti-Flag for the GST pulldown; not shown: Flag, C-terminal, kept
For the molecule B1, the binding result with GST-PKR is recorded as “binds”.

B2: GST-SPHK1 (enzyme, human, UniProt Q9NYA1 1-384, looked up)
chain: MDPAGGPRGVLPRPCRVLVLLNPRGGKGKALQLFRSHVQPLLAEAEISFTLMLTERRNHARELVRSEELGRWDALVVMSGDGLMHEVVNGLMERPDWETAIQKPLCSLPAGSGNALAASLNHYAGYEQVTNEDLLTNCTLLLCRRLLSPMNLLSLHTASGLRLFSVLSLAWGFIADVDLESEKYRRLGEMRFTLGTFLRLAALRTYRGRLAYLPVGRVGSKTPASPVVVQQGPVDAHLVPLEEPVPSHWTVVPDEDFVLVLALLHSHLGSEMFAAPMGRCAAGVMHLFYVRAGVSRAMLLRLFLAMEKGRHMEYECPYLVYVPVVAFRLEPKDGKGVFAVDGELMVSEAVQGQVHPNYFWMVSGCVEPPPSWKPQQMPPPEEPL
notes: sphingosine kinase 1 (SPHK1), human, full-length cDNA in pGEX-4T1; pGEX-4T1 normally adds GST at the N-terminus; also called purified SPHK1; source: Rosetta bacterial cells, purified on Glutathione Sepharose beads
On to B2, for which the binding result with PKR^451A-Flag, in the experiment with PKR^451D-Flag and with PKR-Flag (wild type) was “binds” each time.
